Values quoted from earlier work, collected in publication doi:10.1101/2025.04.17.649309.

Biological target: Cys12 (UniProt position 12, YTKETCPYCHR)

Substance: Glutaredoxin 3 (Grx3) (Escherichia coli)
- pKa: 4.1
